Consider three molecules from PMC6349045.

In data set [1] the target is T1, NP220 DNA-binding domain (NP220DB) (UniProt Q14966 1240-1478).
T1 sequence: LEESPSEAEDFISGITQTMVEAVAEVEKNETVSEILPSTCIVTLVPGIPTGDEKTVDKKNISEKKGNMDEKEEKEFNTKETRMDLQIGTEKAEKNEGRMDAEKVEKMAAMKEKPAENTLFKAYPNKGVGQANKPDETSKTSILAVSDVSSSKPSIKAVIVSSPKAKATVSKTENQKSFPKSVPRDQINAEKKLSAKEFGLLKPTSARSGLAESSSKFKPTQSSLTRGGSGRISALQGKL
The data set can be described thus: competition.

In data set [2] the target is T1, NP220 DNA-binding domain (NP220DB). The data set can be described thus: EMSA.
For data set [3] the target is unchanged. The data set can be described thus: competition. This is another data set of the same source.

B1: DNA72 (NP220 sites deleted) (dsDNA)
DNA 1: AGGATATCTGTGGTAAGCAGTTCCTGCTCAGGGCCAAGAACAGATGGTATGCGGTCCAGCCCTCAGCAGTTT
DNA 2: AAACTGCTGAGGGCTGGACCGCATACCATCTGTTCTTGGCCCTGAGCAGGAACTGCTTACCACAGATATCCT
For the molecule B1, in data set [1], the binding result is “no binding”.

B2: Bio-DNA84 (MLV U3 LTR fragment) (dsDNA)
DNA 1: AGGATATCTGTGGTAAGCAGTTCCTGCCCCGGCTCAGGGCCAAGAACAGATGGTCCCCAGATGCGGTCCAGCCCTCAGCAGTTT
DNA 2: AAACTGCTGAGGGCTGGACCGCATCTGGGGACCATCTGTTCTTGGCCCTGAGCCGGGGCAGGAACTGCTTACCACAGATATCCT
For the molecule B2, the binding result in data set [2] is “binds”.

B3: DNA84 (unlabeled) (dsDNA)
DNA 1: AGGATATCTGTGGTAAGCAGTTCCTGCCCCGGCTCAGGGCCAAGAACAGATGGTCCCCAGATGCGGTCCAGCCCTCAGCAGTTT
DNA 2: AAACTGCTGAGGGCTGGACCGCATCTGGGGACCATCTGTTCTTGGCCCTGAGCCGGGGCAGGAACTGCTTACCACAGATATCCT
As to B3, the binding result in data set [3] was “binds”.
